Data taken from the supplement of paper PMC10567573.

B1: FAM98B (parent)
chain: QLDKNSEVYQEVQAMFDTLGIPKS

Variants of: B1
Assay: protein stability index of a GFP-peptide fusion (GPS, HEK-293T) (PSI 1-6); higher = more stable
Settings: c terminus: a fixed tail appended
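Further: lentivirally expressed fusions sorted by FACS into six bins by GFP to DsRed ratio, PSI derived from sequencing read proportions per bin multiplied by bin number.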

| Variant | protein stability index |
| --- | --- |
| M15P | 3.27 |
| M15L | 2.94 |
| M15W | 3.55 |
| M15D | 3.68 |
| M15I | 3.24 |
| M15G | 3.69 |
| M15F | 3.5 |
| M15V | 2.91 |
| M15S | 3.22 |
| M15R | 3.34 |
| M15C | 2.73 |
| M15Y | 2.55 |
| M15T | 3.25 |
| M15H | 3.08 |
| M15Q | 3.56 |
| M15N | 3.1 |
| M15E | 4.28 |
| M15K | 3.32 |
| M15A | 2.88 |
| L19T | 3.59 |
| L19C | 3.69 |
| L19A | 3.64 |
| L19H | 3.71 |
| L19R | 3.7 |
| L19E | 3.58 |

| Variant | protein stability index |
| --- | --- |
| L19F | 2.85 |
| L19K | 3.32 |
| L19V | 3.56 |
| L19P | 3.17 |
| L19M | 3.15 |
| L19N | 3.38 |
| L19I | 3.06 |
| L19Q | 3.76 |
| L19D | 2.85 |
| L19G | 3.49 |
| L19Y | 3.6 |
| L19S | 3.46 |
| L19W | 2.45 |
| A14W | 2.63 |
| A14T | 3.34 |
| A14V | 2.77 |
| A14Y | 3.22 |
| K23S | 3.24 |
| K23C | 3.06 |
| K23E | 4.21 |
| K23M | 3.38 |
| K23R | 3.38 |
| K23Q | 3.41 |
| K23V | 3.4 |
| K23Y | 2.71 |

| Variant | protein stability index |
| --- | --- |
| K23D | 3.82 |
| K23A | 3.26 |
| K23W | 2.3 |
| K23G | 3.17 |
| K23H | 3.33 |
| K23T | 3.24 |
| K23L | 2.46 |
| K23P | 3.47 |
| K23F | 2.59 |
| K23I | 2.15 |
| K23N | 3.54 |
| S24D | 4.28 |
| S24G | 3.61 |
| S24W | 2.99 |
| S24E | 3.47 |
| S24N | 3.56 |
| S24Q | 3.25 |
| S24I | 2.67 |
| S24A | 2.88 |
| S24Y | 2.36 |
| S24H | 2.99 |
| S24F | 3 |
| S24M | 2.69 |
| S24K | 2.96 |
| S24T | 2.48 |

| Variant | protein stability index |
| --- | --- |
| S24R | 2.5 |
| S24V | 2.61 |
| S24L | 2.46 |
| S24C | 2.44 |
| S24P | 2.79 |
| D17V | 2.38 |
| D17C | 2.64 |
| D17P | 3.49 |
| D17S | 3.14 |
| D17W | 1.57 |
| D17M | 2.5 |
| D17T | 3.12 |
| D17Y | 2.02 |
| D17H | 2.43 |
| D17K | 2.77 |
| D17E | 3.42 |
| D17I | 1.83 |
| D17R | 2.71 |
| D17L | 2.23 |
| D17G | 3.08 |
| D17N | 3.73 |
| D17A | 2.92 |
| D17F | 3.27 |
| D17Q | 2.86 |
| I21M | 3.27 |

| Variant | protein stability index |
| --- | --- |
| I21S | 3.34 |
| I21E | 4.21 |
| I21A | 3.72 |
| I21C | 3.53 |
| I21Y | 3 |
| I21P | 3.6 |
| I21K | 3.58 |
| I21G | 3.69 |
| I21H | 3.4 |
| I21W | 3.6 |
| I21L | 4 |
| I21N | 3.41 |
| I21V | 3.51 |
| I21T | 3.69 |
| I21Q | 3.64 |
| I21F | 3.3 |
| I21D | 3.8 |
| I21R | 2.76 |
| F16G | 3.78 |
| F16E | 4.36 |
| F16T | 3.78 |
| F16W | 2.1 |
| F16Y | 3.57 |
| F16V | 3.94 |
| F16P | 4.42 |

| Variant | protein stability index |
| --- | --- |
| F16M | 3.3 |
| F16N | 3.77 |
| F16I | 2.79 |
| F16C | 3.38 |
| F16H | 2.58 |
| F16Q | 4.11 |
| F16R | 2.92 |
| F16S | 3.42 |
| F16A | 3.82 |
| F16L | 3.12 |
| F16K | 4.07 |
| T18K | 2.25 |
| T18L | 2.97 |
| T18I | 2.79 |
| T18D | 3.87 |
| T18F | 3.52 |
| T18V | 2.57 |
| T18M | 2.78 |
| T18A | 3.34 |
| T18H | 3.07 |
| T18N | 3.13 |
| T18W | 2.02 |
| T18P | 3.38 |
| T18S | 2.85 |
| T18E | 3.57 |

| Variant | protein stability index |
| --- | --- |
| T18Q | 3.24 |
| T18Y | 2.67 |
| T18R | 3.33 |
| T18C | 2.59 |
| T18G | 3.25 |
| G20T | 3.15 |
| G20Q | 2.98 |
| G20L | 3.2 |
| G20M | 2.5 |
| G20H | 2.55 |
| G20W | 3 |
| G20C | 2.63 |
| G20P | 3.01 |
| G20F | 3.04 |
| G20Y | 3.02 |
| G20I | 3.21 |
| G20D | 3.74 |
| G20N | 3.97 |
| G20A | 3.04 |
| G20K | 3.62 |
| G20S | 3.75 |
| G20E | 3.77 |
| G20V | 2.86 |
| G20R | 2.44 |
| P22C | 3.11 |

| Variant | protein stability index |
| --- | --- |
| P22W | 2.98 |
| P22F | 2.12 |
| P22H | 2.87 |
| P22K | 3.38 |
| P22V | 3.16 |
| P22M | 3.37 |
| P22Q | 2.62 |
| P22Y | 2.54 |
| P22A | 3.48 |
| P22N | 3.38 |
| P22S | 4.04 |
| P22R | 4.78 |
| P22T | 3.48 |
| P22I | 2.78 |
| P22L | 2.03 |
| P22G | 2.53 |
| P22E | 4.15 |
| P22D | 4.05 |
